Measured values taken from the nanobody polyreactivity screen of Harvey et al. (2022).

Experiment: yeast display, Sf9 membrane polyspecificity reagent, FACS + sequencing; frameworks hold sequencing errors
Summary of the method: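 Using colony PCR, genes from sorted yeast display clones were amplified, then sequenced on MiSeq at 2 × 250 and filtered by CDR length. The clones had been stained with 10% biotinylated, detergent-solubilized Sf9 membrane reagent for 1 hour at 4 °C and sorted by FACS into low and high (top ~1%) gates on anti-HA and streptavidin fluorescence. Polyreactivity labels come from the gate of origin.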

Sequence	polyreactivity (PSR sort gate)
QVQLVESGGGLVQAGGSLRLSCAASGRTFATYAMGWYRQAPGKEREFVAVIDGSGGSTYYADSVKGRFTISRDNAKNTVYLQMNSLKPEDTAVYYCAATSRRKVPNIRKSYGYWGQGTQVTVSS	high polyreactivity
QVQLVESGGGLVQAGGSLRLSCAASGRTFATYVMGWYRQAPGKERELVAAISLSGGSTYYADSVKGRFTISRDNAKNTVFLQMNSVKPEDTAVYYCAISWVTSSDYWGQGTQVTVSS	low polyreactivity
QVQLVESGGGLVQAGGSLRLSCAASGRTFAVNAMGWYRQAPGTERELVAAISLSGGRTYYADSVKGRFTISRDNAKNTVSLQMNSLKPEDTAVYYCAASRHFARHRGYYFRYDYWGQGTQVTVSS	high polyreactivity
QVQLVESGGGLVQAGGSLRLSCAASGRTFAVYAMGWYRQAPGKERELVAAISSTGGTYYADSVKGRFTISRDNAKNTVYLQMNSLKPEDTAVYYCAATFIQVVVNVQLYDYDYWGQGTQVTVSS	low polyreactivity
QVQLVESGGGLVQAGGSLRLSCAASGRTFAWYTMGWYRQAPGKERELVAAISGSGGSTYYADSVKGRFTISRDNAKNTVYLQMNSLKPEDTAVYYCSRRVDSYYGHTRYYYWGQGTQVTVSS	high polyreactivity
QVQLVESGGGLVQAGGSLRLSCAASGRTFAYHTMGWYRQAPGKERELVARINSGTSTYYADSVKGRFTISRDNEKNTVYLQMNSLKPEDTAVYYCAARGSESIRWYVGGRYGYWGQGTQVTVSS	low polyreactivity
QVQLVESGGGLVQAGGSLRLSCAASGRTFAYNAMGWYRPAPGKEREFVAGISRSGGSTYYADSVKGRFTISRDNAKNTVYLQMNSLKPEDTAVYYCAAQFYALPNVGTKYYSWGQGTQVTVSS	low polyreactivity
QVQLVESGGGLVQAGGSLRLSCAASGRTFAYNAMGWYRQAPGKERELVADITSGGSTYYADSVKGRFTISRDNAKNTVYLQMNSLKPEDTAVYYCAAYPQFWYWDYNYWGQGTQVTVSS	high polyreactivity
QVQLVESGGGLVQAGGSLRLSCAASGRTFAYNAMGWYRQAPGKERELVASITSGGSTNYADSVKGRFTISRDNAKNTVYLQKNSLKPEDTAVYYCNKDGKYHRVLYDYWGLGTQVTVSS	low polyreactivity
QVQLVESGGGLVQAGGSLRLSCAASGRTFAYNAMGWYRQAPGKERELVASITSGGSTNYADSVKGRFTISRDNAKNTVYLQMNSLKPEDTAVFYCNKDGKYHRVLYDYWGQGTQVTVSS	low polyreactivity
QVQLVESGGGLVQAGGSLRLSCAASGRTFAYNTMGWYRQAPGKERELVAAITWSGGGTYYADSVKGRFTISRDNAKNTVYLQMNRLKPEDTAVYFCAVEYASPRARYRYYYWGQGTQVSVSS	low polyreactivity
QVQLVESGGGLVQAGGSLRLSCAASGRTFAYNTMGWYRQAPGKERELVARINSGTSTYYADSVKGRFTISRDNAKNTVYLQMNRLKPEDTAVYYCNAYSWYGYDYWGQGTQVTVSS	high polyreactivity
QVQLVESGGGLVQAGGSLRLSCAASGRTFAYYAMGWYLQAPGKERELVAAISSGGGSTYYADSVKGRFTISRDNAKNTVYLQMNSLKPEDTAVYYCNKGFNYGGWFKKYGYWGQGTQVTVSS	high polyreactivity
QVQLVESGGGLVQAGGSLRLSCAASGRTFCSYAMGWYRQAPGKERELVAAIRYRGGSTYYADSVKGRFTISRDNAKNTVDLQMNSLKPEDTAVYYCATNTWYYYQRMYYWGQGTQVTVSS	high polyreactivity
QVQLVESGGGLVQAGGSLRLSCAASGRTFDANAMGWYRPAPGKERELVAAISSDGSTNYADSVKGRFTISRDNAKNTVYLQMNSLKPEDTAVYYCATDGKPLIRYDYDYWGQGTQVTVSS	high polyreactivity
QVQLVESGGGLVQAGGSLRLSCAASGRTFDFYAMGWYRQAPGKERELVAAISSRGGSTYYADSVKGRFTISRDNAKNTVYLQMNSLKAEDTAVYYCAKDLGYRGRYNYWGQGTQVTVSS	low polyreactivity
QVQLVESGGGLVQAGGSLRLSCAASGRTFDGYAMGWYSQAPGKERELVAALSSRSGRTYYADSVKGRFTISRDNAKNTVYLQMNSLKPEDTAGYYCAAVNKPRSEDYGYWGQGTQVTVSS	high polyreactivity
QVQLVESGGGLVQAGGSLRLSCAASGRTFDGYTLGGYRQAPGKERELVAAISTGGGSTYYADSVKGRFTISRDNAKNTVYVQLNSLKPEDTAVYDCAARGGSYSFRRYNYWGQGTQVTVSS	high polyreactivity
QVQLVESGGGLVQAGGSLRLSCAASGRTFDHYAMGWYRQAPGKERELVAAITSGGSTYYADSVKGRFTISRDNAKNTVYLQMNSLKPEDTAVYYCNKDSSFWGCYIAQVNERDYWGQGTQVTVSS	low polyreactivity
QVQLVESGGGLVQAGGSLRLSCAASGRTFDINDMGWYRQAPGKEREFVAAIDWSGGYTYYADSVKGRFIISRDNAKNTVYLQMNSQKPEDTAVYYCNARRKRSYDYWGQGTQGTVSS	low polyreactivity
QVQLVESGGGLVQAGGSLRLSCAASGRTFDINTMGWYRQAPGKERELVARISGRGGSTYYADSVKGRFTISRDNAKNTVYLLMNSLKPEYTAVYYCNALGRSVLPQPIGDYWGQGTQVTVSS	high polyreactivity
QVQLVESGGGLVQAGGSLRLSCAASGRTFDIYAMGWYRQAPGKERELVAAISSGGSTYYADSVKGRFTISRDNAKNTVYLQMNRLKPEDTAVYYCAVRWYDQVSRRGIGYYWGQGTQVTVSS	low polyreactivity

Sequence	polyreactivity (PSR sort gate)
QVQLVESGGGLVQAGGSLRLSCAASGRTFDKYAMGWYRQAPGKERELVAAISYDAGRTYYADSVKGRFTISRDNAKNTVYLQMNSLKPEDTAVYYCNAVRFRGFGWGQGTQVTVSS	high polyreactivity
QVQLVESGGGLVQAGGSLRLSCAASGRTFDLYAMGWYRQAPGKERELVARITNIDDSTYYADSVKGRFTISRDNAKNTVYLQMNSLKPEDTAVYYCNAASYSRGPARYDYWGQGTQVTVSS	high polyreactivity
QVQLVESGGGLVQAGGSLRLSCAASGRTFDSNAMGWYRQAPGKERELVAAISYSGGSTYYADSVKGRFTISRDNAKNTVYLQMNSLKPEDTAVYYCNAGDVHKKPARDYWGQGTQVTVSS	low polyreactivity
QVQLVESGGGLVQAGGSLRLSCAASGRTFDSYTMGWYRQAPGKERELVAAIRSSGGRTYADSVKGRFTISRDNAKNTVYLQMNSLKPEDTAVYYCAAARSYWAKYYYWGQGTQVTVSS	high polyreactivity
QVQLVESGGGLVQAGGSLRLSCAASGRTFDVYAMGWYRQAPGKEMELVAAITRRGGSTYYADSVKGRFTISRDNAKNTVNLQMNRLKPEDTAVYYCSAAYSRGSGVGRYRLDYWGKGTQVTVSS	high polyreactivity
QVQLVESGGGLVQAGGSLRLSCAASGRTFDVYAMGWYRQAPGKEREFVASITRSGASTYADSVKGRFTISRDNAKNTVYLQMNSLKPEDTAVYYCNAELDLDTGWDGFVAYDYWGQGTQVSVSS	low polyreactivity
QVQLVESGGGLVQAGGSLRLSCAASGRTFDVYAMGWYRQAPGKERELVAAITSGGSTYYADSVKGRFTISRDNAKNTVYLQMNSLKPEDTAVYYCAKASSATRYVQLRQDYDYWGQGTQVTVSS	low polyreactivity
QVQLVESGGGLVQAGGSLRLSCAASGRTFDVYAMGWYRQAPGKERELVAAITSGGSTYYADSVKGRFTISRDNAKNTVYLQMNSLKPEDTAVYYCATDVDKSLYDYWGQGTQVTVSS	low polyreactivity
QVQLVESGGGLVQAGGSLRLSCAASGRTFDVYAMGWYRQAPGKERELVATIRSDGSTTYADSVKGRFTISRDNAKNTVYLQMTSLKPEDTAVYYCAADFRSGFSSSTTPVQSDWGQGTQVTVSS	low polyreactivity
QVQLVESGGGLVQAGGSLRLSCAASGRTFDVYAMGWYRQAPGKERELVATISYRSARTYYADSVKGRFTISRDNAKNTVYLQMNSLKPEDTAVYYCAAYFETWHGFGYWGQGTQVTVSS	high polyreactivity
QVQLVESGGGLVQAGGSLRLSCAASGRTFDWNAMGWYRQAPGKERELVAAITYSGGGTYYADSVKGRFTISRDNAKNTVYLQMNSLKPEDTAVYYCAAGYPGTWSYYYWGQGTQVTVSS	low polyreactivity
QVQLVESGGGLVQAGGSLRLSCAASGRTFDWYAMGWYRQAPGKERELVAVITGRGGSTYYADSVKGRFTISRDNAKNTVYLQMNSLKPEDTAVYYCAVDRLRYRLGFGFKFDYWGQGTQVTVSS	low polyreactivity
QVQLVESGGGLVQAGGSLRLSCAASGRTFDYNAMGWYRQAPGKEREFVAAITKSGGSTNYADSVKGRFTISRDNEKNTVYLQMNSLKPEDTAVYYCNATYVVIHEYDYWGQGTQVTVSS	low polyreactivity
QVQLVESGGGLVQAGGSLRLSCAASGRTFDYYAMGWYRQAPGKERELVAAISSSGGSTYYADSVKARFTISRDNAKNTVYLQMNSLKPEDTEVYYCNAYAYRFNHIHHIYTTVGEYWGQGTQVTVSS	high polyreactivity
QVQLVESGGGLVQAGGSLRLSCAASGRTFDYYAMGWYRQAPGKERELVAAITKDGGSTYYADSVKGRFTISRDNAKNTVYLQMNSLIPEDTAVYYCAADGPPQYYDPIHYDYWGQGTQVTVSS	low polyreactivity
QVQLVESGGGLVQAGGSLRLSCAASGRTFDYYVMGWYRQAPGKERELVAAITSGGSTYYADSVKGRFTISRDNAKNTVYLQMNSMKPEDTAVYYCNNVRGAFYSHLFDYWGQGTQVTVSS	high polyreactivity
QVQLVESGGGLVQAGGSLRLSCAASGRTFEGNAMGWSRQAPGKERELVAAISTSGGRTYYADSVKGRFTISRDNAKKSVYLQMNSLKPEDTAVYYCATSFYVYPTYYILDYWGQGTQVTVSS	low polyreactivity
QVQLVESGGGLVQAGGSLRLSCAASGRTFEGNAMGWYRQAPGKESELVAAITSGGRTNYADSVKGRFTISRDNAKNTVYLQMNCLKPEDPAVYYCAVETRDRSNYFPGQAYDYWGQGTQVTVSS	low polyreactivity
QVQLVESGGGLVQAGGSLRLSCAASGRTFENYAMGWYRQAPGKERELVAAISKSGGSTYYADSVKGRFTISRDNAKNTVYLQMNSLKPEDTAVYYCATRLTSAVGRYLYDFGYWGQGTQVTVSS	high polyreactivity
QVQLVESGGGLVQAGGSLRLSCAASGRTFERNAMGWYRQAPGKEREFVAAITEIGGSTYYADSVKGRFTISRDNAKNTVYLQMNSLKPEDTAVYYCAKDGTYSPYDYWGQGTQVTVSS	low polyreactivity
QVQLVESGGGLVQAGGSLRLSCAASGRTFERNAMGWYRQAPGKERELVAAITWSGVSTYYADSVKGRFTISRDNAKNTVYLQMNSLKPEDTAVYYCAADWDWRFHRMNYWGQGTQVTVSS	low polyreactivity
